Test results: patent publication US20260337282 (published 2026)
Where a chain is given by its changes, count along the chain named. Names and notes keep the numbering of the source.

T1: human CCR2 (human)
T1 chain: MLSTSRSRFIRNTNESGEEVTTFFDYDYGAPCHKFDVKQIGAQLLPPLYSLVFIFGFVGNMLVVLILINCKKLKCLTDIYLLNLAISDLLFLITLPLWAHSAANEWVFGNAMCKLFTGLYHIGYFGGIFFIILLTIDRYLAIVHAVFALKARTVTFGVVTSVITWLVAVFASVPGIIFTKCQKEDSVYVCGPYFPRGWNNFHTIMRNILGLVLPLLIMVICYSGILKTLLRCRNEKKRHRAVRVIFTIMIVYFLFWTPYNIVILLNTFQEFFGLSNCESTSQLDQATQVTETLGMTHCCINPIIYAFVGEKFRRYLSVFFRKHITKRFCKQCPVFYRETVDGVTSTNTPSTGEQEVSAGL

T2: human CCR4 (human)
T2 chain: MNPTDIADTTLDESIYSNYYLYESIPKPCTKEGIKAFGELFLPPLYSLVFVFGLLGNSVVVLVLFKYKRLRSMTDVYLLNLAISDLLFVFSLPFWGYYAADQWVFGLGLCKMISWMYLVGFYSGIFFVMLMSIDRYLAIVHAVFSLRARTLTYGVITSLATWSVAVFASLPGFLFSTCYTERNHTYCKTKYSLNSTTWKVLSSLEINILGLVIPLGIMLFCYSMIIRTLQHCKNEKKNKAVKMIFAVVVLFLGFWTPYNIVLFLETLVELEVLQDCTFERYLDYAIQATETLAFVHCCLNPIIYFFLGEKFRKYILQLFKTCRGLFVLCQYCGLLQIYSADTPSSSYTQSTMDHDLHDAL

T3: mouse CCR8 (mouse)
T3 chain: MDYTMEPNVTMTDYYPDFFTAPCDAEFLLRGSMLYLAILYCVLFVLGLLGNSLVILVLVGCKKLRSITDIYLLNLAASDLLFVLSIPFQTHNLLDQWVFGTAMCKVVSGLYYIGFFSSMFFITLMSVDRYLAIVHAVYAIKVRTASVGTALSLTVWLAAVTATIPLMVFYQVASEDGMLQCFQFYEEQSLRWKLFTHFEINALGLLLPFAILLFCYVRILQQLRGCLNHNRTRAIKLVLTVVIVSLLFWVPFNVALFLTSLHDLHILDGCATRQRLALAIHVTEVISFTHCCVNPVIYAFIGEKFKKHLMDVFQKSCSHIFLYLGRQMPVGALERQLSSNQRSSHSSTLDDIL

T4: human CX3CR1 (human)
T4 chain: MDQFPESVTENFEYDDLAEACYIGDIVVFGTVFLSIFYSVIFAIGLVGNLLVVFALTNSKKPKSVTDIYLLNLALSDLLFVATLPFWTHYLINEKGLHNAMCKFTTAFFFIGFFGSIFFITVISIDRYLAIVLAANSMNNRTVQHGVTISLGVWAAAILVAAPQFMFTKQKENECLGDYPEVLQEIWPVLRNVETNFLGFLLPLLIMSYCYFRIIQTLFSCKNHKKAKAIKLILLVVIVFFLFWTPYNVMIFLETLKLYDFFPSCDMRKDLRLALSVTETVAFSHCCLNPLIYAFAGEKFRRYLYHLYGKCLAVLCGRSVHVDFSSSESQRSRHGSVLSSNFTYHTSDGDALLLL

T5: cynomolgus CCR8 (cynomolgus)
T5 chain: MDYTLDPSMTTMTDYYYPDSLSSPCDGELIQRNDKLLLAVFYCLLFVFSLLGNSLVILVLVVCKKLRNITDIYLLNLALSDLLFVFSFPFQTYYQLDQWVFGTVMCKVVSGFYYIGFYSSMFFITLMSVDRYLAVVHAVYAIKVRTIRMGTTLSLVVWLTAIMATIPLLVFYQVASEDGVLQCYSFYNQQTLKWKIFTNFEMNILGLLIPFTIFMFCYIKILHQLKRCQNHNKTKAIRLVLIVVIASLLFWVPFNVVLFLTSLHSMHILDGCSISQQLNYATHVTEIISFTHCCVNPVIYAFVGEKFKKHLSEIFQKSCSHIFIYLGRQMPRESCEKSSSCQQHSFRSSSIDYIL

B1: 11F5-Y6N-11F5 (antibody, V domains shown)
VH: EVQLVESGGGVVQPGRSLRLSCAASGFTFSSYVVHWVRQAPGKGLEWVAVISYDGDNKFYADSVKGRFTISRDNSKNTLYLQMNSLRTEDTAVYYCARGRNYYNYYGLDVWGQGTTVTVSS
VL: DIVMTQTPLSLSVTPGQPASISCKSSQSLLYSDGKTYLYWYLQKAGQPPQLLIYEVSNRFSGVPDRFSGSGSGTDFTLKISRVEAEDVGVFYCMQSLKVPPTFGQGTKVDIK
B2: 11F5-N3S-11F5 (antibody, V domains shown)
VH: B1 VH with N101S, N104Y
VL: B1 VL
B3: 11F5-Y5V-Y6N-11F5 (antibody, V domains shown)
VH: B1 VH with Y103V
VL: B1 VL
B4: 11F5-N3S-Y6N-11F5 (antibody, V domains shown)
VH: B1 VH with N101S
VL: B1 VL
B5: 11F5-Y5V-11F5 (antibody, V domains shown)
VH: B1 VH with Y103V, N104Y
VL: B1 VL
B6: 11F5-N3S-Y5V-11F5 (antibody, V domains shown)
VH: B1 VH with N101S, Y103V, N104Y
VL: B1 VL
B7: 11F5-N3S-Y5V-Y6N-11F5 (antibody, V domains shown)
VH: B1 VH with N101S, Y103V
VL: B1 VL
B8: 11F5 (antibody, V domains shown)
VH: B1 VH with N104Y
VL: B1 VL
B9: Leronlimab analog (antibody, V domains shown)
VH: EVQLVESGGGLVKPGGSLRLSCAASGYTFSNYWIGWVRQAPGKGLEWIGDIYPGGNYIRNNEKFKDKTTLSADTSKNTAYLQMNSLKTEDTAVYYCGSSFGSNYVFAWFTYWGQGTLVTVSS
VL: DIVMTQSPLSLPVTPGEPASISCRSSQRLLSSYGHTYLHWYLQKPGQSPQLLIYEVSNRFSGVPDRFSGSGSGTDFTLKISRVEAEDVGVYYCSQSTHVPLTFGQGTKVEIK
B10: 11F8 (antibody, V domains shown)
VH: B1 VH with E1Q, S31T, V34M, D56N, F59Y, T69I, Y80F, T88G, N101S, Y103V
VL: B1 VL with A45P, Q50H, D65K, F91Y, L97V, V99I, P101L, Q105G, D110E
B11: 11B12 (antibody, V domains shown)
VH: QVQLVESGGGVVQPGRSLRLSCAASGFSFSSYVMHWVRQAPGKGLEWVAVISYDGSDKYYADSVKGRFTISRDNSKNTLFLQMNSLRPEDTAVYYCARGRGYRYGQSYYYGMDVWGQGTTVTVSS
VL: B1 VL with A45P, L51I, Y54F, F91Y, L97I, V99L, P101L, Q105G, D110E
B12: Mogamulizumab analog-SI (antibody, V domains shown)
VH: EVQLVESGGDLVQPGRSLRLSCAASGFIFSNYGMSWVRQAPGKGLEWVATISSASTYSYYPDSVKGRFTISRDNAKNSLYLQMNSLRVEDTALYYCGRHSDGNFAFGYWGQGTLVTVSS
VL: DVLMTQSPLSLPVTPGEPASISCRSSRNIVHINGDTYLEWYLQKPGQSPQLLIYKVSNRFSGVPDRFSGSGSGTDFTLKISRVEAEDVGVYYCFQGSLLPWTFGQGTKVEIK
B13: Plozalizuzumab analog (antibody, V domains shown)
VH: EVQLVESGGGLVKPGGSLRLSCAASGFTFSAYAMNWVRQAPGKGLEWVGRIRTKNNNYATYYADSVKDRFTISRDDSKNTLYLQMNSLKTEDTAVYYCTTFYGNGVWGQGTLVTVSS
VL: DVVMTQSPLSLPVTLGQPASISCKSSQSLLDSDGKTFLNWFQQRPGQSPRRLIYLVSKLDSGVPDRFSGSGSGTDFTLKISRVEAEDVGVYYCWQGTHFPYTFGQGTRLEIK
B14: 11B12-SG-11F8 (antibody, V domains shown)
VH: B11 VH with D54S
VL: B1 VL with A45P, Q50H, D65K, F91Y, L97V, V99I, P101L, Q105G, D110E
B15: 11F5-SG-11F5-SG (antibody, V domains shown)
VH: B1 VH with D54S, N104Y
VL: B1 VL with D33S

molecular target: human CCR8 (human); assay: FACS
Sequence (chain, as listed by the source): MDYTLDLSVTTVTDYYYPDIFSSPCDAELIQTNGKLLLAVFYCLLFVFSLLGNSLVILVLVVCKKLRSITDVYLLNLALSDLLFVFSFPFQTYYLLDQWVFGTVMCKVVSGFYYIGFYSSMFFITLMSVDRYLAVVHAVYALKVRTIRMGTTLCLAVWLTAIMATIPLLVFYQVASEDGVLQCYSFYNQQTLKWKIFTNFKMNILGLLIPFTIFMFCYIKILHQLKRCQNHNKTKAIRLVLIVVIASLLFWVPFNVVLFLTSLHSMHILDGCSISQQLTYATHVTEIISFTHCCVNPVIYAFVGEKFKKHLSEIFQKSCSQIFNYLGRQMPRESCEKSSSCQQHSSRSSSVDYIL

| EC50 [µg/mL] | Binder |
| --- | --- |
| 0.254 | B1 |
| 0.168 | B2 |
| 0.592 | B3 |
| 0.174 | B4 |
| 0.714 | B5 |
| 0.228 | B6 |
| 0.21 | B7 |
| 0.207 | B8 |

Molecular target: T1, human CCR2
Assay: FACS

| binding result | Binder |
| --- | --- |
| no binding | B9 |
| no binding | B10 |
| no binding | B11 |
| no binding | B8 |
| no binding | B12 |

Molecular target: T2, human CCR4
Assay: FACS

| binding result | Binder |
| --- | --- |
| no binding | B13 |
| no binding | B9 |
| no binding | B10 |
| no binding | B11 |
| no binding | B8 |

molecular target: human CCR8 (human); assay: FACS; remark: another data set of the same source

| EC50 [µg/mL] | Binder |
| --- | --- |
| 0.104 | B10 |
| 0.194 | B11 |
| 0.287 | B8 |

molecular target: human CCR8 (human); assay: FACS; remark: another data set of the same source

| binding result | Binder |
| --- | --- |
| no binding | B13 |
| no binding | B9 |
| no binding | B12 |

Molecular target: T3, mouse CCR8
Assay: FACS

| EC50 [µg/mL] | Binder |
| --- | --- |
| 0.127 | B10 |
| 0.177 | B11 |
| 0.055 | B14 |
| 0.4 | B8 |
| 0.069 | B15 |

molecular target: human CCR5 (human); assay: FACS
Sequence (O14692 whole entry): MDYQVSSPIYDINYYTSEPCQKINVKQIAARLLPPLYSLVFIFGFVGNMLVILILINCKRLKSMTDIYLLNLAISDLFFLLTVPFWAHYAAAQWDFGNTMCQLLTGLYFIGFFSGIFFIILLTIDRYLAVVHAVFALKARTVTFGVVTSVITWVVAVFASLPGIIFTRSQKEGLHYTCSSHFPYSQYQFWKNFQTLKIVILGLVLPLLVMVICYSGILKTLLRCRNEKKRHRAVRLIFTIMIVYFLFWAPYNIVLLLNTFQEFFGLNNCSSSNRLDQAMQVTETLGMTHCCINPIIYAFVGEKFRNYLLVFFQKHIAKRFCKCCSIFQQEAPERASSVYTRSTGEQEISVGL

| binding result | Binder |
| --- | --- |
| no binding | B13 |
| no binding | B10 |
| no binding | B11 |
| no binding | B8 |
| no binding | B12 |

molecular target: human CCR8 (human); assay: FACS; remark: another data set of the same source

| EC50 [µg/mL] | Binder |
| --- | --- |
| 0.0814 | B10 |
| 0.21 | B11 |
| 0.285 | B8 |

Molecular target: T3, mouse CCR8
Assay: FACS
Remark: another data set of the same source

| EC50 [µg/mL] | Binder |
| --- | --- |
| 0.127 | B10 |
| 0.177 | B11 |
| 0.4 | B8 |

Molecular target: T3, mouse CCR8
Assay: FACS
Remark: another data set of the same source

| EC50 [µg/mL] | Binder |
| --- | --- |
| 0.198 | B1 |
| 0.119 | B2 |
| 0.546 | B3 |
| 0.105 | B4 |
| 0.762 | B5 |
| 0.129 | B6 |
| 0.141 | B7 |
| 0.168 | B8 |

Molecular target: T4, human CX3CR1
Assay: FACS

| binding result | Binder |
| --- | --- |
| no binding | B13 |
| no binding | B9 |
| no binding | B10 |
| no binding | B11 |
| no binding | B8 |
| no binding | B12 |

Molecular target: T5, cynomolgus CCR8
Assay: FACS

| EC50 [µg/mL] | Binder |
| --- | --- |
| 0.71 | B10 |
| 0.103 | B11 |
| > 2 | B8 |

molecular target: human CCR8 (human); assay: FACS; remark: another data set of the same source

| EC50 [µg/mL] | Binder |
| --- | --- |
| 0.104 | B10 |
| 0.194 | B11 |
| 0.051 | B14 |
| 0.287 | B8 |
| 0.033 | B15 |
